Measured values taken from US20200078469A1, “HEPARIN-PEPTIDE BIOCONJUGATES AND USES THEREOF” (Symic IP, LLC, priority 2015, published 2020).
Ends that are not written are not given here.

Target: collagen
Assay: Collagen-binding plate assay
Settings: compared to Hep-SILY that does not contain aggregates
Experimental: The following method is used to assess the binding affinity of bioconjugates disclosed herein for collagen. Similar assays are employed to assess binding affinity of other targets (e.g., hyaluronic acid, ICAM, VCAM, selectin).
Collagen-binding of bioconjugate variants was compared by a plate-assay, in which collagen was coated on 96-well plates. Collagen was coated on high-bind plates at 50 μg/mL in 0.02 N acetic acid for 1 hour at room temperature. Unbound collagen was rinsed with 1×PBS pH 7.4. Plates were then blocked in 1% milk in 1×PBS solution for 1 hour at room temperature.
Bioconjugate variants containing biotinlyated peptides were dissolved to a final concentration of 1 mg/mL in 1% milk in 1×PBS pH 7.4. From this solution, a 10× serial dilution was performed. Molecules were then incubated on the blocked collagen-coated plates and incubated for 15 minutes at room temperature. Plates were then rinsed 3 times with 1×PBS in 1% BSA and 0.2% Tween20.
Bound molecules were detected by streptavidin-HRP, which was diluted 1:500 in 1×PBS with 1% BSA and 0.2% Tween20 and incubated 200 μL/well for 20 minutes at room temperature. Streptavidin solution was rinsed from the plates 3 times with 1×PBS with 0.2% Tween20. […] Absorbance in the well was then measured at 450 nm and binding affinity was plotted in a dose-response by absorbance vs. concentration.

- collagen binding affinity (EC50): higher affinity (lower EC50 values)
B1: Hep-SILY containing aggregates: Hep-SILY made with modified purification, containing ionically interacting non-covalently bound SILY peptide; high molecular weight aggregates (conjugate)
peptide 1: RRANAALKAGELYKSILYGSG
peptide 2: RRANAALKAGELYKSILYGSG
peptide 3: RRANAALKAGELYKSILYGSG
modifications: also: conjugated to heparin (glycan) via hydrazide-carbonyl linkage, non-covalent high molecular weight aggregates
